Here are results for one molecule from article PMC8397897.

The series concerns the target DENV capsid protein (DENVC) (Dengue virus 2 strain 16681, UniProt O09234 1-100). Briefly: nephelometry (condensate formation); NaCl < 150 mM; diminished above; nonlabeled 25 mer. To be noted: protein: recombinant; chain copies: 2.

Consider GGACAGGAAUUAAUAGUAGCUGUCC (ssDNA, printed with U although named ssDNA; chemistry ambiguous) [ssDNASel25 (Sel25 DNA, 25 mer)], for which the binding result was “binds”.
